B1: TCN-540 (5060_F05) (antibody, V domains shown)
VH: QVQLVQSGGGVVQPGRSLRLSCAASGFTFSSYAMHWVRQAPGKGLEWVAIISYDGNDQYYTDSVKGRFTISRDSSKVYLQMHRLRPEDTAVYYCAKEFETSGYFHGSFDYWGQGILVTVSS
VL: QSALTQPASVSGSPGQSITISCTGTSSDVGGYNYVSWYQQHPGKAPKLLIYEVTNWPSGVSNRFSGSKSGNTASLTISGLQAEDEADYYCSSYAGSSTWVFGGGTRVTVL
B2: TCN-543 (5081_G23) (antibody, V domains shown)
VH: QVHLVQSGAEVRKPGDSVKVSCKTSGYTFSTYPVAWVRQVPGQGLEWMGWISTYNGNTNFAQNFQGRVTLTTDTTTNTAYMEVRSLKFDDTAVYYCARVEGSYRDFWNNQNRFDPWGQGTLVTVSS
VL: SYVLTQPPSVSVAPGQTARISCGGSNIGGKSVHWYQQKPGQAPVLVVYDDSGRPSGIPERFSGSNSGDTATLTISRVEAGDEADYFCQVWDNFGGVFGTGTKVTVL
B3: TCN-558 (5248_H10b) (antibody, V domains shown)
VH: QVQLVQSGSEVKKPGTSVKVSCTASGSVFTNYGISWVRQAPGQGLEWMGGIIPLFGAAKYAQKFQGRVTITADESTKTVYMELSRLTSKDTAIYFCAKAPRVYEYYFDQWGQGTPVTVSS
VL: EIVMTQFPATLSVSPGERVTLSCRASQSVSNNLAWYQQKPGQPPRLLIYDASTRATGVPAKFSGTGSGTEFTLSISSLQSEDFAVYYCQQYHNWPPSYSFGLGTKLEIK
B4: TCN-550 (5096_F06) (antibody, V domains shown)
VH: QVQLQESGPGLVKPSETLSLTCTVSGASINSHYWSWIRQPPGKGLEWIGYVYYSGSTTYNPSLKSRVTLSVDTSKNQFSLNLSSVTAADTAFYYCARHPYDVLTGSGDWFDPWGQGTLVTVSS
VL: SYVLTQAPSVSVAPGQTARITCGGNAIGSKKVHWYQHKAGQAPVLVVYDDTDRPSGIPERFSGSNSWSTATLTINRVEAGDEADYYCQVWDFTIDHVVFGGGTKLTVL
B5: TCN-546 (5089_L08) (antibody, V domains shown)
VH: QVQLQQWGAGLLKPSETLSLTCGVYGGSLSDYYWSWIRQPPGKGLEWIGEINHSGGTNYNPSLKRRVTISVDTSKKQFSLKMNSVTAADTAVYYCARGTDPDTEVYCRAGNCAAFDFWGQGTLVTVSS
VL: EIVLTQSPGTLSLSPGERATLSCRASHFVIGRAVAWYQQKPGQAPRLLIYGASSRATGIPDRFSGSGSGTDFTLTISRLETEDFAVFYCQHYGSSPRYAFGQGTKLEIK
B6: TCN-527 (5086_C06) (antibody, V domains shown)
VH: QVQLQESGPGLVKPSETLSLNCAVSGGSISNYYWSWIRQPPGKGLEWIGYISYNGRPKYNPSLTSRVTISVDTSKDQFSLELRSVTAADTALYYCARETRFGELLSPYDAFEIWGQGTMVTVSS
VL: DIQMTQSPSSLSASVGDRVTMTCRASQNIRSYLNWYQQRPGTAPKLLIYAASTLHSGVPSRFSGGGSGTDFTLTINNLQPEDFASYYCQQSYDNPQTFGQGTKVEIK
B7: TCN-528 (5087_P17) (antibody, V domains shown)
VH: QVQLVQSGSEVKKPGASVKVSCKASGYTFTNYDINWIRQAPGQGLEWMGWINPNSGTTGSAQRFQGRVTITVDTSITTVYMELSSLRSDDTAIYYCARGRELLRLQHFLTDSQSERRDCFDPWGQGTLVTVSS
VL: DIQMTQSPSSLSASVGDRVTITCRANQDIGIYLNWYQQNPGKVPKLLLHGASSLQGGVPSRFSASGSGTDFTLTIHSLQPEDLATYYCQQSRRLPYTFGQGTRVELK
B8: TCN-521 (3280_D18) (antibody, V domains shown)
VH: EVQLVQSGGGLVQPGGSLRLACVVSGFTVTSNYITWVRQAPGKGLEWVSVIYSHGRAYYSASVNGRFTISRHTSKNTVYLEMNSLRPEDTAVYYCAGGGLVGGYDEYFFDYWGQGTLATVSS
VL: ETVLTQSPGTLSLTPGERATLSCRVGQSVSGSHLAWYQQKPGQAPRLLIYGASSRATGIPDRFGGSVSGTDFTLTISRLEPEDSAVYYCQQYGDSRYTFGQGTKLEIK

Molecular target: recombinant soluble homotrimeric HA, A/Netherlands/219/03 (H7N7) (influenza A virus A/Netherlands/219/03 (H7N7))
Test: microarray, trimeric HA, transfection supernatant
Details: remark: other sources report otherwise

| Binder | Trimeric HA Binding RLU [RLU] |
| --- | --- |
| B1 | 4390 |
| B2 | 12900 |
| B3 | 5840 |

Molecular target: recombinant soluble homotrimeric HA, A/northern shoveler/California/HKWF115/2007 (H6N1) (influenza A virus A/northern shoveler/California/HKWF115/2007 (H6N1))
Test: microarray, trimeric HA, transfection supernatant
Details: remark: other sources report otherwise

| Binder | Trimeric HA Binding RLU [RLU] |
| --- | --- |
| B1 | 2460 |
| B4 | 2300 |
| B3 | 29400 |

Molecular target: recombinant soluble homotrimeric HA, A/Hong Kong/156/97 (H5N1) (influenza A virus A/Hong Kong/156/97 (H5N1))
Test: microarray, trimeric HA, transfection supernatant
Details: remark: other sources report otherwise

| Binder | Trimeric HA Binding RLU [RLU] |
| --- | --- |
| B1 | 1550 |
| B2 | 1430 |
| B5 | 1240 |
| B4 | 955 |

Molecular target: recombinant soluble homotrimeric HA, A/Anhui/1/05 (H5N1) (influenza A virus A/Anhui/1/2005 (H5N1))
Test: microarray, trimeric HA, transfection supernatant
Details: remark: other sources report otherwise

| Binder | Trimeric HA Binding RLU [RLU] |
| --- | --- |
| B1 | 2190 |
| B5 | 33300 |

Molecular target: recombinant soluble homotrimeric HA, A/duck/Yangzhou/02/2005 (H8N4) (influenza A virus A/duck/Yangzhou/02/2005 (H8N4))
Test: microarray, trimeric HA, transfection supernatant
Details: remark: other sources report otherwise

| Binder | Trimeric HA Binding RLU [RLU] |
| --- | --- |
| B1 | 6080 |
| B2 | 13100 |
| B5 | 11400 |
| B4 | 4710 |

Molecular target: recombinant soluble homotrimeric HA, A/chicken/Vietnam/NCVD-016/08 (H5N1) (influenza A virus A/chicken/Vietnam/NCVD-016/2008 (H5N1))
Test: microarray, trimeric HA, transfection supernatant
Details: remark: other sources report otherwise

| Binder | Trimeric HA Binding RLU [RLU] |
| --- | --- |
| B1 | 1510 |
| B2 | 5880 |
| B5 | 2940 |
| B4 | 1800 |
| B3 | 33400 |

Molecular target: recombinant soluble homotrimeric HA of A/Wisconsin/67/05 (H3N2) (Influenza A virus A/Wisconsin/67/2005 (H3N2))
Test: HA microarray, BCC supernatant
Details: remark: other sources report otherwise

| Binder | Trimeric HA Binding RLU [RLU] |
| --- | --- |
| B1 | 728 |
| B2 | 1360 |
| B5 | 30200 |
| B4 | 26300 |
| B6 | 5720 |
| B7 | 48800 |

Molecular target: recombinant soluble homotrimeric HA of A/swine/Ontario/01911-2/99 (H4N6) (Influenza A virus A/Swine/Ontario/01911-2/99 (H4N6))
Test: HA microarray, BCC supernatant
Details: remark: other sources report otherwise

| Binder | Trimeric HA Binding RLU [RLU] |
| --- | --- |
| B6 | 7690 |
| B7 | 47500 |

Molecular target: recombinant soluble homotrimeric HA of A/Indonesia/5/05 (H5N1) (Influenza A virus A/Indonesia/5/2005 (H5N1))
Test: HA microarray, BCC supernatant
Details: remark: other sources report otherwise

| Binder | Trimeric HA Binding RLU [RLU] |
| --- | --- |
| B1 | 31 |
| B5 | 18400 |
| B4 | 9100 |
| B8 | 31500 |
| B6 | 23800 |
| B7 | 42800 |

Molecular target: recombinant soluble homotrimeric HA of A/Anhui/1/05 (H5N1) (Influenza A virus A/Anhui/1/2005 (H5N1))
Test: HA microarray, BCC supernatant
Details: remark: other sources report otherwise

| Binder | Trimeric HA Binding RLU [RLU] |
| --- | --- |
| B1 | 25 |
| B5 | 2040 |
| B4 | 1210 |
| B6 | 21400 |
| B7 | 49800 |

Molecular target: recombinant soluble homotrimeric HA of A/duck/Yangzhou/02/2005 (H8N4) (Influenza A virus A/duck/Yangzhou/02/2005 (H8N4))
Test: HA microarray, BCC supernatant
Details: remark: other sources report otherwise

| Binder | Trimeric HA Binding RLU [RLU] |
| --- | --- |
| B1 | 117 |
| B4 | 407 |
| B6 | 28800 |
| B7 | 38400 |

Molecular target: recombinant soluble homotrimeric HA of A/Hong Kong/2108/03 (H9N2) (Influenza A virus A/Hong Kong/2108/2003 (H9N2))
Test: HA microarray, BCC supernatant
Details: remark: other sources report otherwise

| Binder | Trimeric HA Binding RLU [RLU] |
| --- | --- |
| B1 | 22 |
| B5 | 13000 |
| B4 | 2280 |
| B8 | 93 |
| B6 | 16000 |
| B7 | 42000 |

Molecular target: recombinant soluble homotrimeric HA of A/northern shoveler/California/HKWF115/2007 (H6N1) (Influenza A virus A/northern shoveler/California/HKWF115/2007 (H6N1))
Test: HA microarray, BCC supernatant
Details: remark: other sources report otherwise

| Binder | Trimeric HA Binding RLU [RLU] |
| --- | --- |
| B1 | 131 |
| B8 | 48000 |
| B6 | 30300 |
| B7 | 46800 |

Molecular target: recombinant soluble homotrimeric HA of A/Netherlands/219/03 (H7N7) (Influenza A virus A/Netherlands/219/03 (H7N7))
Test: HA microarray, BCC supernatant
Details: remark: other sources report otherwise

| Binder | Trimeric HA Binding RLU [RLU] |
| --- | --- |
| B1 | 381 |
| B2 | 661 |
| B6 | 8890 |
| B7 | 49300 |

Molecular target: recombinant soluble homotrimeric HA of A/chicken/Vietnam/NCVD-016/08 (H5N1) (Influenza A virus A/chicken/Vietnam/NCVD-016/2008 (H5N1))
Test: HA microarray, BCC supernatant
Details: remark: other sources report otherwise

| Binder | Trimeric HA Binding RLU [RLU] |
| --- | --- |
| B1 | 70 |
| B5 | 421 |
| B4 | 361 |
| B8 | 32400 |
| B6 | 27000 |
| B7 | 38200 |

Molecular target: recombinant soluble homotrimeric HA of A/Vietnam/1203/04 (H5N1) (Influenza A virus A/Vietnam/1203/2004 (H5N1))
Test: HA microarray, BCC supernatant
Details: remark: other sources report otherwise

| Binder | Trimeric HA Binding RLU [RLU] |
| --- | --- |
| B5 | 349 |
| B4 | 277 |
| B6 | 21300 |
| B7 | 45600 |

Molecular target: recombinant soluble homotrimeric HA of A/Egypt/3300-NAMRU3/08 (H5N1) (Influenza A virus A/Egypt/3300-NAMRU3/2008 (H5N1))
Test: HA microarray, BCC supernatant
Details: remark: other sources report otherwise

| Binder | Trimeric HA Binding RLU [RLU] |
| --- | --- |
| B1 | 1970 |
| B8 | 47900 |

Molecular target: recombinant soluble homotrimeric HA of A/California/4/09 (H1N1) (Influenza A virus A/California/04/2009 (H1N1))
Test: HA microarray, BCC supernatant
Details: remark: other sources report otherwise

| Binder | Trimeric HA Binding RLU [RLU] |
| --- | --- |
| B1 | 57 |
| B2 | 13100 |
| B5 | 350 |
| B6 | 28000 |
| B7 | 48800 |

Molecular target: recombinant soluble homotrimeric HA of A/Japan/305/57 (H2N2) (Influenza A virus A/Japan/305/1957 (H2N2))
Test: HA microarray, BCC supernatant
Details: remark: other sources report otherwise

| Binder | Trimeric HA Binding RLU [RLU] |
| --- | --- |
| B1 | 2970 |
| B5 | 520 |
| B4 | 201 |
| B8 | 6730 |
| B6 | 19300 |
| B7 | 46400 |

Molecular target: recombinant soluble homotrimeric HA of A/Solomon Islands/3/06 (H1N1) (Influenza A virus A/Solomon Islands/3/2006 (H1N1))
Test: HA microarray, BCC supernatant
Details: remark: other sources report otherwise

| Binder | Trimeric HA Binding RLU [RLU] |
| --- | --- |
| B1 | 64 |
| B2 | 511 |
| B4 | 204 |
| B8 | 39600 |
| B6 | 16500 |
| B7 | 44800 |

Source: patent US20150104459A1
